Measurements published in article PMC11101478 (2024).

How the values were obtained:
Assay in all cases: BLI
[1] = biological target: Shigella sonnei 3070 LamB (Shigella sonnei 3070, UniProt Q3YUU9 26-446)
E. coli LamB = E. coli LamB (E. coli, UniProt P02943 26-446)
E. coli LamB A384S = E. coli LamB A384S (E. coli, UniProt P02943 26-446, A384S)

B1: gpJ713 (C-terminal truncation of bacteriophage lambda gpJ, starting from residue 713) (domain or fragment)
chain: APAAPSRIELTPGYFQITATPHLAVYDPTVQFEFWFSEKQIADIRQVETSTRYLGTALYWIAASINIKPGHDYYFYIRSVNTVGKSAFVEAVGRASDDAEGYLDFFKGKITESHLGKELLEKVELTEDNASRLEEFSKEWKDASDKWNAMWAVKIEQTKDGKHYVAGIGLSMEDTEEGKLSQFLVAANRIAFIDPANGNETPMFVAQGNQIFMNDVFLKRLTAPTITSGGNPPAFSLTPDGKLTAKNADISGSVNANSGTLSNVTIAENCTINGTLRAEKIVGDIVKAASAAFPRQRESSVDWPSGTRTVTVTDDHPFDRQIVVLPLTFRGSKRTVSGRTTYSMCYLKVLMNGAVIYDGAANEAVQVFSRIVDMPAGRGNVILTFTLTSTRHSADIPPYTFASDVQVMVIKKQALGISVV
Binder B1 has a koff [1] of less than 1e-07 s⁻¹, a koff (E. coli LamB) of 0.00427 s⁻¹ and a koff (E. coli LamB A384S) of less than 1e-07 s⁻¹.
